Experimental data: patent US20240400693A1 (Chugai, published 2024)

Assays:
Assay in all cases: cell-based or functional assay
[1] = molecular target: HLA-DQ2.5 on IHW09023 cells loaded with BC hordein peptide (human; barley)
[2] = molecular target: HLA-DQ2.5 on IHW09023 cells loaded with gamma 1 gliadin peptide (human; wheat)
[3] = molecular target: HLA-DQ2.5 on IHW09023 cells loaded with gamma 4a gliadin peptide (human; wheat)
[4] = molecular target: HLA-DQ2.5 on IHW09023 cells loaded with omega1/2 gliadin peptide (human; wheat)
[5] = molecular target: HLA-DQ2.5 on IHW09023 cells loaded with gamma 2 gliadin peptide (human; wheat)
[6] = molecular target: HLA-DQ2.5 on IHW09023 cells loaded with 33mer gliadin peptide (human; wheat)
[7] = molecular target: HLA-DQ2.5 on IHW09023 cells loaded with gamma 4d gliadin peptide (human; wheat)
[8] = molecular target: HLA-DQ2.5 on IHW09023 cells loaded with gamma 3 gliadin peptide (human; wheat)

| Binder | IC50 (ng/mL), BC hordein TCR, 250 nM BC hordein [1] [ng/mL] | IC50 (ng/mL), γ1 gliadin TCR, 250 nM γ1 gliadin [2] [ng/mL] | IC50 (ng/mL), γ4a gliadin TCR, 25 µM γ4a gliadin [3] [ng/mL] | IC50 (ng/mL), ω1 gliadin TCR, 25 µM ω1/2 gliadin [4] [ng/mL] | IC50 (ng/mL), ω2 gliadin TCR, 250 nM ω1/2 gliadin [4] [ng/mL] | IC50 (ng/mL), γ2 gliadin TCR, 250 nM γ2 gliadin [5] [ng/mL] | IC50 (ng/mL), α1a gliadin TCR, 250 nM 33mer gliadin [6] [ng/mL] | IC50 (ng/mL), α1b gliadin TCR, 250 nM 33mer gliadin [6] [ng/mL] | IC50 (ng/mL), α2 gliadin TCR, 250 nM 33mer gliadin [6] [ng/mL] | IC50 (ng/mL), γ4d gliadin TCR, 100 µM γ4d gliadin [7] [ng/mL] | IC50 (ng/mL), γ3 gliadin TCR, 100 µM γ3 gliadin [8] [ng/mL] |
| --- | --- | --- | --- | --- | --- | --- | --- | --- | --- | --- | --- |
| DQN0344H0976/L0591//DQN0385H1352/L0681-F6 (bispecific antibody) heavy 1: QVQLVESGGGVVQPGGSLRLSCAASGFTFSSAYWMVWVRQAPGQGLEWMGAVYGGSDTTYYAKWTEGRFTISRDTSKNTLYLQMNSLRAEDTAVYYCAREPLNYYYYGELNLWGQGTLVTVSSASTKGPSVFPLAPSSKSTSGGTAALGCLVKDYFPEPVTVSWNSGALTSGVHTFPAVLKSSGLYSLSSVVTVPSSSLGTQTYICNVNHKPSNTKVDKRVEPKSCDKTHTCPPCPAPELRRGPSVFLFPPKPKDTLMISRTPEVTCVVVDVSHEDPEVKFNWYVDGVEVHNAKTKPREEQYNSTYRVVSVLTVLHQDWLNGKEYKCKVSNKALPAPIEKTISKAKGQPREPQVYTLPPSREEMTKNQVSLTCLVKGFYPSDIAVEWESNGQPENNYKTTPPYLDSDGSFFLYSKLTVDKSRWQEGNVFSCSVLHEALHAHYTREELSLSP light 1: DIQMTQSPSSLSASVGDRVTITCQATEEIYSGLAWYQQKPGKAPKLLIYYVSTLYEGIPARFSGSGSGTDFTLTISSLEPEDFAVYYCQTYEDVSAVTFGQGTKVEIKRTVAAPSVFIFPPSDEQLKSGTAEVVCLLNNFYPREAKVQWKVDNALQSGNSEESVTEQDSKDSTYSLSSTLTLSKADYEKHKVYACEVTHQGLSSPVTKSFNRGEC heavy 2: QVQLVESGGGVVQPGRSLRLSCAASGFEFSEWYFMSWVRQAPGKGLEWVASIDTGSGSIDYAEWVEGRFTISRDNSKNTLYLQMNSLRAEDTAVYYCARDIGIDYNFWGPGTLVTVSSASTKGPSVFPLAPSSKSTSGGTAALGCLVEDYFPEPVTVSWNSGALTSGVHTFPAVLESSGLYSLSSVVTVPSSSLGTKTYICNVNHKPSNTKVDKRVEPKSCDKTHTCPPCPAPELRRGPSVFLFPPKPKDTLMISRTPEVTCVVVDVSHEDPEVKFNWYVDGVEVHNAKTKPREEQYNSTYRVVSVLTVLHQDWLNGKEYKCKVSNKALPAPIEKTISKAKGQPREPQVYTLPPSRKEMTKNQVSLTCLVKGFYPSDIAVEWESNGQPENNYKTTPPYLDSDGSFFLYSKLTVDKSRWQQGNVFSCSVLHEALHAHYTRKELSLSP light 2: DIQMTQSPSSLSASVGDRVTITCQTTQSISSYLNWYQQKPGQPPKLLIYYASTKAEGIPARFSGSGLGTDFTLTISSLEPEDFAVYYCHYGISKVSFGQGTKVEIKRTVAAPSVFIFPPSDEQLKSGTAKVVCLLNNFYPREAKVQWKVDNALQSGNSKESVTEQDSKDSTYSLSSTLTLSKADYEKHKVYACEVTHQGLSSPVTKSFNRGEC | 10.8 | 1.11 | 802 | 1.48 | 0.24 | 284 | 0.29 | 1.37 | 0.31 | 9.82 | 2.99 |
| DQN0344H0976/L0591//DQN0385H1527/L0605-F6 (bispecific antibody) heavy 1: QVQLVESGGGVVQPGGSLRLSCAASGFTFSSAYWMVWVRQAPGQGLEWMGAVYGGSDTTYYAKWTEGRFTISRDTSKNTLYLQMNSLRAEDTAVYYCAREPLNYYYYGELNLWGQGTLVTVSSASTKGPSVFPLAPSSKSTSGGTAALGCLVKDYFPEPVTVSWNSGALTSGVHTFPAVLKSSGLYSLSSVVTVPSSSLGTQTYICNVNHKPSNTKVDKRVEPKSCDKTHTCPPCPAPELRRGPSVFLFPPKPKDTLMISRTPEVTCVVVDVSHEDPEVKFNWYVDGVEVHNAKTKPREEQYNSTYRVVSVLTVLHQDWLNGKEYKCKVSNKALPAPIEKTISKAKGQPREPQVYTLPPSREEMTKNQVSLTCLVKGFYPSDIAVEWESNGQPENNYKTTPPYLDSDGSFFLYSKLTVDKSRWQEGNVFSCSVLHEALHAHYTREELSLSP light 1: DIQMTQSPSSLSASVGDRVTITCQATEEIYSGLAWYQQKPGKAPKLLIYYVSTLYEGIPARFSGSGSGTDFTLTISSLEPEDFAVYYCQTYEDVSAVTFGQGTKVEIKRTVAAPSVFIFPPSDEQLKSGTAEVVCLLNNFYPREAKVQWKVDNALQSGNSEESVTEQDSKDSTYSLSSTLTLSKADYEKHKVYACEVTHQGLSSPVTKSFNRGEC heavy 2: QVQLVESGGGVVQPGRSLRLSCAASGFTFASWYFMSWVRQAPGKGLEWVASIDTGSGSIDYAEWVEGRFTISRDNSKNTLYLQMNSLRAEDTAVYYCARDIGIDYNFWGPGTLVTVSSASTKGPSVFPLAPSSKSTSGGTAALGCLVEDYFPEPVTVSWNSGALTSGVHTFPAVLESSGLYSLSSVVTVPSSSLGTKTYICNVNHKPSNTKVDKRVEPKSCDKTHTCPPCPAPELRRGPSVFLFPPKPKDTLMISRTPEVTCVVVDVSHEDPEVKFNWYVDGVEVHNAKTKPREEQYNSTYRVVSVLTVLHQDWLNGKEYKCKVSNKALPAPIEKTISKAKGQPREPQVYTLPPSRKEMTKNQVSLTCLVKGFYPSDIAVEWESNGQPENNYKTTPPYLDSDGSFFLYSKLTVDKSRWQQGNVFSCSVLHEALHAHYTRKELSLSP light 2: DIQMTQSPSSLSASVGDRVTITCQTTQSISSYLNWYQQKPGQPPKLLIYYASTKAEGIPARFSGSGSGTDFTLTISSLEPEDFAVYYCHYGISKVSFGQGTKVEIKRTVAAPSVFIFPPSDEQLKSGTAKVVCLLNNFYPREAKVQWKVDNALQSGNSKESVTEQDSKDSTYSLSSTLTLSKADYEKHKVYACEVTHQGLSSPVTKSFNRGEC | 6.54 | 0.59 | 1210 | 3.25 | 0.3 | 637 | 0.7 | 1.84 | 0.51 | 11.4 | 2.09 |
| DQN0344H1013/L0620//DQN0385H1270/L0681-F6 (bispecific antibody) heavy 1: QVQLVESGGGVVQPGRSLRLSCAASGFTFSSAYWMVWVRQAPGQGLEWMGAVYGGSDTTYYAKWTEGRFTISRDTSKNTLYLQMNSLRAEDTAVYYCAREPLNYYYYGELNVWGQGTLVTVSSASTKGPSVFPLAPSSKSTSGGTAALGCLVKDYFPEPVTVSWNSGALTSGVHTFPAVLKSSGLYSLSSVVTVPSSSLGTQTYICNVNHKPSNTKVDKRVEPKSCDKTHTCPPCPAPELRRGPSVFLFPPKPKDTLMISRTPEVTCVVVDVSHEDPEVKFNWYVDGVEVHNAKTKPREEQYNSTYRVVSVLTVLHQDWLNGKEYKCKVSNKALPAPIEKTISKAKGQPREPQVYTLPPSREEMTKNQVSLTCLVKGFYPSDIAVEWESNGQPENNYKTTPPYLDSDGSFFLYSKLTVDKSRWQEGNVFSCSVLHEALHAHYTREELSLSP light 1: DIQMTQSPSSLSASVGDRVTITCQATENIYSGLAWYQQKPGKAPKLLIYYVSTLAYGIPARFSGSGSGTDFTLTISSLEPEDFAVYYCQTYEDVSAVTFGQGTKVEIKRTVAAPSVFIFPPSDEQLKSGTAEVVCLLNNFYPREAKVQWKVDNALQSGNSEESVTEQDSKDSTYSLSSTLTLSKADYEKHKVYACEVTHQGLSSPVTKSFNRGEC heavy 2: QVQLVESGGGVVQPGRSLRLSCAASGFTFSEWYFMSWVRQAPGKGLEWVASIDTGSGSIDYAEWVEGRFTISRDNSKNTLYLQMNSLRAEDTAVYYCARDIGIDYNFWGPGTLVTVSSASTKGPSVFPLAPSSKSTSGGTAALGCLVEDYFPEPVTVSWNSGALTSGVHTFPAVLESSGLYSLSSVVTVPSSSLGTKTYICNVNHKPSNTKVDKRVEPKSCDKTHTCPPCPAPELRRGPSVFLFPPKPKDTLMISRTPEVTCVVVDVSHEDPEVKFNWYVDGVEVHNAKTKPREEQYNSTYRVVSVLTVLHQDWLNGKEYKCKVSNKALPAPIEKTISKAKGQPREPQVYTLPPSRKEMTKNQVSLTCLVKGFYPSDIAVEWESNGQPENNYKTTPPYLDSDGSFFLYSKLTVDKSRWQQGNVFSCSVLHEALHAHYTRKELSLSP light 2: DIQMTQSPSSLSASVGDRVTITCQTTQSISSYLNWYQQKPGQPPKLLIYYASTKAEGIPARFSGSGLGTDFTLTISSLEPEDFAVYYCHYGISKVSFGQGTKVEIKRTVAAPSVFIFPPSDEQLKSGTAKVVCLLNNFYPREAKVQWKVDNALQSGNSKESVTEQDSKDSTYSLSSTLTLSKADYEKHKVYACEVTHQGLSSPVTKSFNRGEC | 7.54 | 1.11 | 1160 | 2.51 | 0.2 | 322 | 0.38 | 1.78 | 0.33 | 13.1 | 2.63 |
